In data set [1] the test system is full-length mouse Nrf1 and luciferase fusion protein (mNrf1-Luc). Kind of data set: Luciferase activity in Hepa1 cell line stably expressing mouse Nrf1-luciferase fusion protein (Nrf1 stabilization assay). In kind it is cell-based. As to conditions: mNrf1-Luc stable Hepa1 cell lines, 10 μM MG-132, 4 hours, vs DMSO. The method, then:
(§1) Cloning of mouse Nrf1 cDNA was performed using a method known in the art (Zhang et al., Biochem. J. 399: 373-385. (2006)). An expression vector of full-length mouse Nrf1 and luciferase fusion protein (mNrf1-Luc) was prepared by ligating the sequence, which was amplified by the following primers: 5′-TAATACGACTCACTATAGGG-3′ (SEQ ID NO: 21) and 5′-CTTTATGTTTTTGGCGTCTTCCTTCCTCCGGTCCTTTG-3′ (SEQ ID NO: 22) using mouse Nrf1 cDNA sequence as a template, and the sequence, which was amplified by the following primers: 5′-CAAAGGACCGGAGGAAGGAAGACGCCAAAAACATAAAG-3′ (SEQ ID NO: 23) and 5′-GACTCTAGAATTACACGGCG-3′ (SEQ ID NO: 24) using pGL3-basic vector (Promega) as a template; and cloning the resulting sequence at a KpnI/XbaI site of pcDNA3.1/V5His B plasmid (Invitrogen). […]
(§2) Cells of each cell line were seeded at a density of 5×10^4 cells per well in a 24-well plate, cultured overnight and treated with a solvent control, DMSO or 10 μM MG-132 (Peptide Institute) for 4 hours. Thereafter, the firefly luciferase activity was measured using dual luciferase kit (Promega) and a luminometer (Berthold).

The subject of data set [2] is CNC-bZip domain-deficient mouse Nrf1 and luciferase fusion protein (mNrf1ΔCNC-bZip-Luc). Kind of data set: Luciferase activity in Hepa1 cell line stably expressing CNC-bZip domain-deficient mouse Nrf1-luciferase fusion protein. The format is cell-based. As to conditions: mNrf1ΔCNC-bZip-Luc stable Hepa1 cell lines, 10 μM MG-132, 4 hours, vs DMSO. The method, then:
as §1, §2

The target in data set [3] is T1, Nrf1 CT (G341-K741)/MafG 1-123 heterodimer (Mus musculus, UniProt Q61985;O54790 Q61985:341-741,O54790:1-123). Kind of data set: EMSA; slightly weaker than for Nqo1 ARE; room temperature 20 min; probe boundaries in FIG. 6E may differ from the reporter insert. As to conditions: tags: 6xHis on each; E. coli; label: 5' biotin (EMSA). The method, then:
(§3) (A to C) Hepa1 cells were cotransfected with luciferase reporter constructs containing the AREs from the Lipin1 promoter (A), Lipin1 intron (B) or PGC-1β intron (C) together with or without the Nrf1 expression vector. The average values±S.D are shown, n=3. The vertical axis indicates relative luciferase units (RLU). The firefly luciferase activity in the absence of effector plasmids is set to 1. (D) The EMSA analysis was performed with biotin-labeled probes containing the AREs from the Nqo1 promoter, Lipin1 promoter, Lipin1 intron and PGC-1β intron regions. Recombinant MafG and/or Nrf1 or Nrf2 proteins were incubated with the probes, and the protein-DNA complexes and free probes were resolved by electrophoresis. (E) The sequences of the wild-type (W) and mutant (M) oligonucleotides are shown. The mutation sites of the sequences are underlined. (F) Nrf2 and MafG proteins were incubated in combination in the presence or absence of a 200-fold molar excess of unlabeled competitor DNA. The open arrowheads indicate Nrf1/MafG heterodimer complexes, the solid arrowheads indicate Nrf2-MafG heterodimer complexes and the arrows indicate MafG homodimer complexes.
(§4) EMSA was performed in accordance with a method known in the art. […]

The target in a further data set is MafG 1-123 homodimer (UniProt O54790 O54790:1-123). Put plainly: EMSA; MafG homodimer; MARE-like site. Particulars: tags: 6xHis; E. coli; chain copies: 2 (stated); label: 5' biotin (EMSA). The method, then: as §3, §4
Data set [4] deals with T1, Nrf1 CT (G341-K741)/MafG 1-123 …. Put plainly: EMSA; room temperature 20 min; probe boundaries in FIG. 6E may differ from the reporter insert. Particulars: tags: 6xHis on each; E. coli; label: 5' biotin (EMSA). The method, then:
as §3, §4

Where a SMILES comes first, the peptide text is derived from it. The star is where a group is joined. Cbz = O=C(OCc1ccccc1)*

T1 sequence (Q61985 341-741, chain 1 of 2): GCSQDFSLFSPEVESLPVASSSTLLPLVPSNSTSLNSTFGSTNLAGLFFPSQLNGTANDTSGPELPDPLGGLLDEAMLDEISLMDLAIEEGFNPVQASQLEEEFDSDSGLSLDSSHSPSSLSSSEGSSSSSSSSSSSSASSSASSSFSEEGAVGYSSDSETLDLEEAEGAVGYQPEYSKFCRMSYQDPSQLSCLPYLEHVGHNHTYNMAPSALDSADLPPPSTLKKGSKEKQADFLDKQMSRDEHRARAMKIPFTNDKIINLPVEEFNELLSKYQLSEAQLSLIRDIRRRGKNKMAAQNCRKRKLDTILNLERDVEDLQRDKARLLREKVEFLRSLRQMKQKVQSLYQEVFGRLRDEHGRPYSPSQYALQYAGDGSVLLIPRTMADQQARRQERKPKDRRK
T1 sequence (O54790 1-123, chain 2 of 2): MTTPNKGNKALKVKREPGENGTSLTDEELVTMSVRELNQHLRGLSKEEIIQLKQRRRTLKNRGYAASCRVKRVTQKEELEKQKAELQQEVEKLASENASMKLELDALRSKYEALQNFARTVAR
MafG 1-123 homodimer, sequence (O54790 1-123, one chain of several): as the sequence (O54790 1-123, chain 2 of 2) above

Regarding `CC(C)C[C@@H](C=O)NC(=O)[C@H](CC(C)C)NC(=O)[C@H](CC(C)C)NC(=O)OCc1ccccc1` [MG-132] (Cbz-Leu-Leu-Leu-aldehyde), the “luciferase activity compared to solvent” value in data set [1] and in data set [2] was “drastic increase of luciferase activity” in each case.

B1: Lipin1 promoter ARE (dsDNA)
DNA 1: ACGCTCCTGCCGCTGAGCTGTGACTCAGCCAGAGAACTGAG
DNA 2: CTCAGTTCTCTGGCTGAGTCACAGCTCAGCGGCAGGAGCGT
For the molecule B1, the binding result in data set [3] was “binds”.

B2: Lipin1 intron ARE (dsDNA)
DNA 1: CACACCCTGCCCAGAGGCACACTTGCTGAGTCAGCACCCCGG
DNA 2: CCGGGGTGCTGACTCAGCAAGTGTGCCTCTGGGCAGGGTGTG
Consider B2, for which the binding result (with MafG 1-123 homodimer; in data set [4]) was “binds” throughout.

B3: PGC-1beta intron ARE (dsDNA)
DNA 1: TTGATAGTGAGGGGAACATGCTGACTCAGCAGCTCCGAATAA
DNA 2: TTATTCGGAGCTGCTGAGTCAGCATGTTCCCCTCACTATCAA
Turning to B3, the binding result (in the data set with MafG 1-123 homodimer; in data set [4]) was “binds” each time.

Values taken from patent publication US20140364335A1, “METHOD FOR SCREENING FOR NRF1 REGULATOR” (Mochida Pharmaceutical Co., Ltd., priority 2012, published 2014).
